# Experimental data taken from patent publication US11904004B2, “Anti-CD277 antibodies” (INSTITUT NATIONAL DE LA SANTE ET DE LA RECHERCHE MEDICALE …, priority 2010, dated 2024).
# Where “and” joins values, the source holds several entries; their conditions need not be identical. Identical values can stand only once.
# B1: mAb 20.1: murine anti-CD277 antibody obtainable from the hybridoma CNCM I-4402; agonist (antibody, V domains shown)
# VH: QVQLQQSGAELVKPGASVKLSCKASGYTFTRYYLYWVKQRPGQGLEWIGEINPNNGGTKFNEKFKSKATLTVDKSSRTTYIQLSSLTSEDSAVYYCSREDDYDGTPDAMDYWGQGTAVTVSS
# VL: DIQMNQSPSSLSASLGDTITITCHASQNINLWLSWYQQRPGNIPKLLIYRASNLHTGVPSRFSGSGSATGFTLTISSLQPEDIATYYCQQGHSYPYTFGGGTKLDIK
# What was measured:
# primary AML blasts [1] = assay: Chromium release assay, lysis of primary AML blasts by Vγ9Vδ2 T cells; assay type: cell-based, human
# Protocol: (§1) Effector γδ T cells were established and maintained as previously described^28. PBMC from HV were stimulated with ZOL (1 μm) and rhlL-2 (200 IU/ml) at Day 0. From Day 5, rhIL-2 was renewed every two days and cells were kept at 1.5×10^6/m1 for 15 days. NK cells were isolated using EASYSEP® Human NK cell enrichment kit (StemCell Technologies). The purity of γδ T cells and NK cells was determined by flow cytometry and respectively greater than 80% and 98%. The Burkitt lymphoma cell line, DAUDI, the human AML cell line, U937, and the erythroleukemic cell line, K562, were obtained from the American Type Culture Collection and cultured (0.5×10^6/ml) in RPMI 1640 medium with 10% FCS. BTN3A Knock-down HEK293FT cells (sh #284; clone #30) were provided by E.Scotet (Inserm U892, Nantes), cultured and transfected with BTN3A1, BTN3A2, BTN3A3 mutated cDNA-containing plasmids, as described^23.
# (§2) 0.5×10^6 target cells were incubated with 50 pCi of ^51Cr (Perkin-Elmer) for AML blasts and 10 pCi for DAUDI and K562 cells for 90 minutes and mixed with effector cells in a Effector:Target (E:T) ratio of […]. After 4 hours of incubation at 37° C., 50p1 supernatant of each sample was transferred in LUMA® plates and radioactivity was determined by a gamma counter. The percentage of specific lysis was calculated using the formula [(experimental−spontaneous release/total−spontaneous release)×100] and expressed as the mean of triplicate.
# Vγ9/Vδ2 T cells = assay: Cytolytic function, cytokine production and proliferation of Vγ9/Vδ2 T cells; assay type: cell-based
# Excerpt: Typically the activation of the cytolytic function of Vγ9/Vδ2 T cells may be measured according to the method described in example 3 (i.e. “Analysis of Vγ9Vδ2 T cell responses by direct cytotoxicity assay”, and for example the results “CD277 potentiate the anti-tumor cytolysis mediated by Vγ9Vδ2 T cells”). Examples of isolated anti-CD277 antibodies, which activate the cytolytic function, cytokine production and proliferation of Vγ9/Vδ2 T cells, are mAbs 20.1 or 7.2, or derivatives thereof.
# Target cells were labelled with 20 μCi of 51Cr (PerkinElmer) for 1 h at 37° C. After washing target cells were incubated with effectors Vγ9Vδ2 T cells for 4 h at 37° C. in different ratio. Incubations were performed in presence of specific or isotype control mAbs or Fab fragments. The radioactivity released by target cells was measured, 4 h later, on beta plate counter. The percentage of specific 51Cr lysis was calculated using the following equation: percent specific lysis=100×[(test release)−(spontaneous release)]/[(maximal release)−(spontaneous release)].
# Vγ9Vδ2 T cells = assay: Stimulation and expansion assay of Vγ9Vδ2 T cells from PBMC; assay type: cell-based, human
# Protocol: P815 (mouse mastocytoma cell line), K562 (chronic myeloid leukaemia cell line), Raji and Daudi (Burkitt lymphoma cell lines) were cultured in RPMI 1640 medium (Invitrogen) and 10% foetal calf serum (FCS) (Eurobio). The PBMC from healthy donors were distributed at 106/ml in 24-well culture plates at 37° C. in 5% CO2 in RPMI 1640 medium and 10% FCS. Polyclonal Vγ9Vδ2 T cells were specifically expanded with 3 μmol/l of Phosphostim (BrHPP molecule, Innate Pharma, Marseille, France) and 100 U/ml IL-2 (Chiron, Basel, Switzerland) for 12 days. Phosphostim was added once at the onset of the culture. Every 2 days, one-half of the culture medium volume was replaced with fresh medium containing 100 U/ml IL-2.
# PBMC were plated and stimulated as described in the paragraph: cell lines and expansion of γδ T cells, except cells were stimulated with anti-CD277 mAbs (10 μg/ml); or control isotypes (10 μg/ml); and with or without BrHPP at different concentrations. […] Percentages of Vγ9Vδ2 were measured the first day and the last day of culture as described above. Expanded γδ T cells effectors were stimulated with or without different doses of BrHPP added in anti-CD277 mAbs at 10 μg/ml; or with OKT3 (4 ng/ml) associated with anti-BT3 19.5 mAb in different concentrations. Activation of degranulation was measured by CD107 labelling assay as described above.
# primary AML blasts [2] = assay: Chromium release assay, lysis of primary AML blasts by NK cells; assay type: cell-based, human
# Protocol: as §1, with “BTN3A Knock-down HEK293FT cells (sh #284; clone #30) were provided by E.Scotet (Inserm U892, Nantes), cultured and transfected with BTN3A1, BTN3A2, BTN3A3 mutated cDNA-containing plasmids, as described^23.” left out
# as §2
# CD4+ T cells = assay: Functional assays on CD4+ T cells using plate-immobilized mAbs; assay type: cell-based, human
# Protocol: Purified CD4+ T cells (200×10^3 cells/well) from thawed human PBMCs were cultured in RPMI 1640 10% FBS in flat bottom 96-well plates (MICROTEST™ 96, BD) with previously plate-immobilized mouse anti-human CD3 (clone OKT3)/CD28 (clone CD28.2) or anti-CD3/anti-CD277 (clone 20.1) or anti-CD3/isotypic control (IgG1). Purified anti-CD3 was used at 0, 3 μg/ml. Anti-CD28, anti-CD277 and isotypic control were used at 10 μg/ml. Cells were placed into an atmosphere of 5% CO2 at 37° C. in a humidified incubator. […] […] Data were analyzed using FLOWJO® Software (TreeStar, Ashland, OR).
# [3] = system: immature dendritic cells (iDC); assay: Apoptosis detection (Annexin V), survival of iDC; assay type: cell-based, human; conditions: plastic-coated mAb or GM-CSF, 72-h culture, representative value and range of five experiments, listed as anti-BT3 mAb
# Protocol: Blood samples were obtained from 5 healthy volunteers enrolled among the staff members, after informed consent. Monocytes were separated from peripheral blood mononuclear cells, and isolated using the MACS CD14 isolation kit (Miltenyi Biotech, Auburn, Calif. USA). Monocytes were cultured for 5 days with 200 ng/ml of recombinant human GM-CSF and 10 ng/ml recombinant human IL-4 (Schering-Plough Research Institute). These cells were termed immature dendritic cells (iDC). To achieve the stimulation, monocytes and iDC were cultured with 10 ng/ml of LPS, ligand for TLR4, 30 μg/ml of 8848 (Sigma-Aldrich, Milano, Italy), ligand for TLR7/8 and with […] of poly (I:C) (Sigma-Aldrich), ligand for TLR3, and were harvested after 48 h. The cells were cultured in RPMI 1640 supplemented with 10% heat-inactivated FCS, 5 mM L-glutamine and 50 IU/ml penicillin-streptomycin (from here on referred to as complete medium).
# Monocytes and iDC were cultured on plastic coated with anti-BT3 mAb (clone 20.1) or with isotype-matched irrelevant mAb. As control, the cells were stimulated with 20 ng/ml recombinant human GM-CSF (Schering-Plough Research Institute). After three days, cells were harvested, stained with Annexin V-FITC (Bender MedSystems, Wien, Austria) and analysed by flow cytometry.
# [4] = co-stimulation with anti-CD3, vs anti-CD3/IgG1 control, after 24 hours of culture
molecule,measurement,setting,value
B1,Vγ9Vδ2 T cell lysis of ZOL-resistant or ZOL-poorly responsive AML blasts,primary AML blasts [1]; E:T 30:1,significantly enhanced
same,enhancement of Vγ9Vδ2 T cells lysis of AML blasts compared with BrHpp,"primary AML blasts [1]; E:T 30:1, ZOL 45 μM O/N, 20.1 mAb 10 μg/ml, BrHpp 2 μM",significantly more efficient
same,specific lysis of AML blasts,"primary AML blasts [1]; Vγ9Vδ2 T cells pre-incubated with mAb (10 μg/ml, 90 minutes), washed",~4.36±2.11%
same,"AML blasts lysis by Vγ9Vδ2 T cells, addition to ZOL",primary AML blasts [1]; anti-BTN3A 20.1 mAb added to ZOL,poor but significant
same,specific lysis of AML blasts,"primary AML blasts [1]; blasts pre-incubated with mAb (10 μg/ml, 90 minutes), washed",22.92±7.64%
same,sensitization of blasts from UPN09 to Vγ9Vδ2 T cells lysis in vitro,primary AML blasts [1]; data not shown,highly sensitized
same,specific lysis of AML blasts,"primary AML blasts [1]; simultaneous incubation of effector cells, target cells and mAb",35.95±1.16%
same,"cytolytic function, cytokine production and proliferation of Vγ9/Vδ2 T cells",Vγ9/Vδ2 T cells,activate
same,proliferation of Vγ9Vδ2 cells (CFSE),Vγ9Vδ2 T cells; PBMC + IL-2,associated with the proliferation
same,expansion of Vγ9Vδ2 T cells,"Vγ9Vδ2 T cells; PBMC + IL-2, 15 days of culture",expanded
same,NK cells-mediated AML blasts lysis,primary AML blasts [2],no effect
same,IFN-γ production by CD4+ T cells (ELISA),CD4+ T cells; [4],strongly enhanced
same,IL-2 production by CD4+ T cells (ELISA),CD4+ T cells; [4],significantly highest than the one with the IgG control
same,CD25 activated positive cells,"CD4+ T cells; co-stimulation with anti-CD3, after 3 days of culture",45%
same,healthy-vital (surviving) iDC,[3],56.75% and 53.13-60.71%
